In series [1] the target is T1, MdMYB17 (apple, UniProt D9ZJ54 1-196).
T1 sequence: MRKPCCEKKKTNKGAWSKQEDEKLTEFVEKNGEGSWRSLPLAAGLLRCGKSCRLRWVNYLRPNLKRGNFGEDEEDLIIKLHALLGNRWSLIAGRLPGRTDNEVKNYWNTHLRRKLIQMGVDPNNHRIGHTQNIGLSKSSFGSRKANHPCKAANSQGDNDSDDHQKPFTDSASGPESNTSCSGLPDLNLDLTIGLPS
Description: EMSA; LightShift Chemiluminescent EMSA kit; buffer, salt, pH and temperature not stated; cold competitor 200-300-fold. The following applies: protein: recombinant; tags: His (pET-32a fusion); label: biotin; blunt. In general terms: In EMSA bound probe runs differently from free probe, usually more slowly.

Series [2] addresses T1, MdMYB17. Briefly: competition; unlabeled mutant competitor; LightShift Chemiluminescent EMSA kit; buffer, salt, pH and temperature not stated; cold competitor 200-300-fold. The conditions noted are these: protein: recombinant; tags: His (pET-32a fusion); blunt.
A further series has as its target T2, MdEIL1 (apple, UniProt D5L144 1-659).
T2 sequence: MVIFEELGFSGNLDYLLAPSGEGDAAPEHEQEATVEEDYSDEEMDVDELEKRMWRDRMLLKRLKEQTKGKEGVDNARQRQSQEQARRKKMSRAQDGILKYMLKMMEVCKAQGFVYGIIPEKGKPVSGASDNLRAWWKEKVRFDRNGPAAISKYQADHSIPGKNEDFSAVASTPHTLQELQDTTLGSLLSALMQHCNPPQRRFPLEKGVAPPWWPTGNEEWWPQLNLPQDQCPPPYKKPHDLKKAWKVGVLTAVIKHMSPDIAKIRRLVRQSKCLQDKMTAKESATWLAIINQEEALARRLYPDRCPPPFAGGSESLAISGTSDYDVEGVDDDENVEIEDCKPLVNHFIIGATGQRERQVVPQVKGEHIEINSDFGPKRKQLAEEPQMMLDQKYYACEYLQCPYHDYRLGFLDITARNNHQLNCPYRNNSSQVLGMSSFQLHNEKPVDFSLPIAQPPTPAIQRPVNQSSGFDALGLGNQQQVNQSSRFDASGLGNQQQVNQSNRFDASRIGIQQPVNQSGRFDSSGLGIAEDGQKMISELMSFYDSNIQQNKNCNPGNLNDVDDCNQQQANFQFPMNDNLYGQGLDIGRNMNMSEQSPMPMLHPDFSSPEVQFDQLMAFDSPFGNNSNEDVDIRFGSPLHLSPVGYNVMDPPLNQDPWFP
Briefly: EMSA; LightShift Chemiluminescent EMSA kit; buffer, salt, pH and temperature not stated; cold competitor 200-300-fold. The following applies: protein: recombinant; tags: His (pET-32a fusion); label: biotin; blunt.

The target in another series is T3, MdMYB1 (apple, UniProt A0SQ35 1-243).
T3 sequence: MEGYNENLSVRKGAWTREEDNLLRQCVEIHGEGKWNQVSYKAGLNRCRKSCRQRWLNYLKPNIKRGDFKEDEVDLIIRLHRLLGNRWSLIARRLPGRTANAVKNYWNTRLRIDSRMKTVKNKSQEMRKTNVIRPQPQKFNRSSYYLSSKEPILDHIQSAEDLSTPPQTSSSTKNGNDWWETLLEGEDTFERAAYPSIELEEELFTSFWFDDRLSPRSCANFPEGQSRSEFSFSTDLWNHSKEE
Described as above. The conditions noted are these: protein: recombinant; tags: His (pET-32a fusion); label: biotin; blunt.

Positions count from the first letter of the chain named.

B1: MdDFR promoter MBS probe (dsDNA)
DNA 1: AAACTCCCTAAATAAACCAGTTGTACTGGTGGATAGGCCT
DNA 2: AGGCCTATCCACCAGTACAACTGGTTTATTTAGGGAGTTT
As for B1, the binding result with MdMYB17 [1] is “binds”.

B2: MdDFR promoter MBS mutated (dsDNA)
DNA 1: B1 DNA 1 with A19G, T22C
DNA 2: B1 DNA 2 with A19G, T22C
As for B2, the binding result in the series with MdMYB17 [2] was “no binding”.

B3: MdMYB17 promoter ATGTA1 probe (dsDNA)
DNA 1: TCAAATTAATTATAAATTAAATGTAACCATGACAAGGAAAGTGTC
DNA 2: GACACTTTCCTTGTCATGGTTACATTTAATTTATAATTAATTTGA
Turning to B3, in the series with MdEIL1, the binding result is “binds”.

B4: MdUFGT promoter MBS probe (dsDNA)
DNA 1: GTCAAGTATGGTACAAACAACTGCAATAAAATATTGCCAC
DNA 2: GTGGCAATATTTTATTGCAGTTGTTTGTACCATACTTGAC
B4: in the series with MdMYB17 [1], the binding result is given as “binds”.

B5: MdUFGT promoter MBS mutated (dsDNA)
DNA 1: B4 DNA 1 with A19G, G23A
DNA 2: B4 DNA 2 with C18T, T22C
For the molecule B5, the binding result with MdMYB17 [2] was “no binding”.

B6: MdEIL1 promoter MRE2 probe (dsDNA)
DNA 1: ATTGTTCTGTTTATTGTTTAGGTTAATCTGTTCTTATCTGC
DNA 2: GCAGATAAGAACAGATTAACCTAAACAATAAACAGAACAAT
Regarding B6, in the series with MdMYB17 [1], the binding result is given as “binds”.

B7: MdMYB17 promoter MBS3 probe (dsDNA)
DNA 1: AGATGTGTAGTTAAATTACCCAACTGTAAGTCAAGCGGAGTAGTCA
DNA 2: TGACTACTCCGCTTGACTTACAGTTGGGTAATTTAACTACACATCT
On to B7, for which the binding result with MdMYB1 is “binds”.

B8: MdMYB1 promoter MBS probe (dsDNA)
DNA 1: AGACTGGTAGCTATTAACAACTGTTGGAATGTTTTAAACT
DNA 2: AGTTTAAAACATTCCAACAGTTGTTAATAGCTACCAGTCT
As for B8, the binding result with MdMYB17 [1] is “binds”.

B9: MdMYB1 promoter MBS mutated (dsDNA)
DNA 1: B8 DNA 1 with A19G, G23A
DNA 2: B8 DNA 2 with C18T, T22C
As to B9, the binding result with MdMYB17 [2] is “no binding”.
